These are literature values, as cited in patent US3940480A, “Process for production of stabilized powdery secretin preparation by lyophilization” (priority 1972, dated 1976).

For this data set the following is noted: kept at -20°C.

On to Secretin, for which the “Hormone activity of secretin kept at low temperature (in words)” value was “gradually loses its hormone activity”.
